Assay [1] deals with mutant Huntingdon exon 1-expressing PC12 and SH-SY5Y cells. As to conditions: overexpression in PC12 and SH-SY5Y cells; D. Rubinsztein et al.; cited from earlier work.
In assay [2] the target is GroES (Escherichia coli, UniProt P0A6F9). As to conditions: ELISA; proteins coated at 10 μg/mL, GroES at 10 μg/mL, 25° C. As for the experimental part:
GroES binding and competition assays by ELISA (enzyme-linked immunosorbant assay). Proteins were coated onto plastic microtitre plates (Maxisorb, Nunc) overnight at 4° C. at a concentration of 10 μg/mL in carbonate buffer (50 mM NaHCO3, pH 9.6). Plates were blocked for 1 hour at 25° C. with 2% Marvel in PBS (phosphate buffered saline: 25 mM NaH2PO4, 125 mM NaCl, pH 7.0). GroES, at 10 μg/mL in 100 μL of 10 mM Tris-HCl, 200 mM KCl, pH 7.4, were bound at 25° C. for 1 hour. Bound GroES were detected with rabbit anti-GroES antibodies (Sigma) followed by anti-rabbit immunoglobulins horseradish peroxidase conjugated antibodies (Sigma).
In general terms: An ELISA detects its analyte on a solid surface through an enzyme-linked reagent.

The target of assay [3] is T1, pig heart mitochondrial malate dehydrogenase (mtMDH) (Sus scrofa, UniProt P00346).
T1 construct: pig heart mitochondrial malate dehydrogenase (mtMDH; Boehringer-Mannheim); purchased Boehringer-Mannheim; host or cells: pig heart
T1 sequence (P00346 25-338): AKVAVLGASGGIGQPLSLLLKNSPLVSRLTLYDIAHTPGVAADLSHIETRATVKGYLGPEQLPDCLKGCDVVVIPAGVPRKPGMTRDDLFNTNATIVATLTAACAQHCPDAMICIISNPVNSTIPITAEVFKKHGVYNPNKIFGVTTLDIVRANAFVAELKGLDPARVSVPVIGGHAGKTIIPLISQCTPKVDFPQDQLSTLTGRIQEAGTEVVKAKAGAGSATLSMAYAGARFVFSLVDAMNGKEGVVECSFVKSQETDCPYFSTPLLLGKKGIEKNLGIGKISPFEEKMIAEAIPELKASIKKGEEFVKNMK
The experiment in a line: In vitro refolding and aggregation protection of heat- and dithiothreitol-denatured mtMDH. It is filed as biochemical. The settings on record: reactivation at 25° C., chaperone alone, FIG. 7b. The method, then: In vitro refolding experiments. Refolding assays of pig heart mitochondrial malate dehydrogenase (mtMDH; Boehringer-Mannheim) and aggregation protection were carried out essentially as described (Peres Ben-Zvi, A. P., Chatellier, J., Fersht, A. R. & Goloubinoff, P. (1998) Proc. Natl. Acad. Sci. U.S.A. 95, 15275-15280). The concentrations of MC7 used were between 8-16 μM (reporter to protomer).

For assay [4], the system named is bacteriophage λ (b2cI). The experiment in a line: Growth (plaque formation) of bacteriophage λ at 30° C. in transformed wild-type and groEL mutant strains. It is filed as cell-based, E. coli. The source says:
Bacterial and bacteriophage strains. The E. coli strains used in this study were: C41(DE3), a mutant of BL21(DE3) capable of expressing toxic genes (Miroux, B. & Walker, J. E. (1996) J. Mol. Biol. 260, 289-298); SV2 (B178groEL44), SV3 (B178groEL59) and SV6 (B178groEL673): isogenic strains carrying temperature-sensitive alleles of groEL; SV1(=B178) (Georgopoulos, C., Hendrix, R. W., Casjens, S. R. & Kaiser, A. D. (1973) J. Mol. Biol. 76, 45-60), AI90 (ΔgroEL::kan^R) [pBAD-EL] (Ivic, A., Olden, D., Wallington, E. J. & Lund, P. A. (1997) Gene 194, 1-8), and TG1 (Gibson, T. J. (1984) Ph.D. thesis, University of Cambridge, U.K). Bacteriophage λb2cI (Zeilstra-Ryalls, J., Fayet, O., Baird, L. & Georgopoulos, C. (1993) J. Bacteriol. 175, 1134-1143) was used according to standard methods (Arber, W., Enquist, L., Hohn, B., Murray, N. E. & Murray, K. (1983) in Lambda II., ed. R. W. Hendrix, J. W. r., F. W. Stahl and R. A. Weisberg (Cold Spring Harbor Laboratory, Cold Spring Harbor, N.Y.), pp. 433-466); plaque formation was assayed at 30° C. T4D0, a derivative of bacteriophage T4 (Zeilstra-Ryalls, J., Fayet, O., Baird, L. & Georgopoulos, C. (1993) J. Bacteriol. 175, 1134-1143), was used according to standard methods (Karam, J. D. (1994) Molecular biology of bacteriophage T4. (American Society for Microbiology, Washington, D.C.)); plaque formation was assayed at 37° C.
Bacteriophage λ requires the chaperonins GroES and GroEL for protein folding during morphogenesis; bacteriophage T4 requires GroEL and Gp31, the latter being encoded by the bacteriophage genome (Zeilstra-Ryalls, J., Fayet, O. & Georgopoulos, C. (1991) Annu. Rev. Microbiol. 45, 301-325). Nine groE alleles which fail to support λ growth have been sequenced (Zeilstra-Ryalls, J., Fayet, O., Baird, L. & Georgopoulos, C. (1993) J. Bacteriol. 175, 1134-1143). We examined the ability of MC7, over-expressed from the constitutive tet promoter on a high-copy number vector (see FIG. 2), to complement three mutant groEL alleles for plaque formation by λ (b2cI) at 30° C. (Table 3) and T4 at 37° C. (Table 4).

These results are taken from patent US20020137891A1, “Protein scaffold and its use to multimerise monomeric polypeptides” (priority 1999, published 2002).

Chain of GroES (P0A6F9 whole entry): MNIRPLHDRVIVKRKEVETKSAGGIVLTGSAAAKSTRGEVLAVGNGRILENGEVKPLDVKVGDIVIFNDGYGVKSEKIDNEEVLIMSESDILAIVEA

B1: GroEL(191-345): GroEL(191-345) minichaperone monomer (protein, UniProt P0A6F5 191-345, looked up, fragment)
chain: EGMQFDRGYLSPYFINKPETGAVELESPFILLADKKISNIREMLPVLEAVAKAGKPLLIIAEDVEGEALATLVVNTMRGIVKVAAVKAPGFGDRRKAMLQDIATLTGGTVISEEIGMELEKATLEDLGQAKRVVINKDTTTIIDGVGEEAAIQGR
modifications: apical domain
notes: GroEL(191-345) minichaperone monomer
Regarding B1, in assay [1], the cell death result is listed as “reduced cell death” and the “proportion of cells with inclusions” value is reported as “reduced slightly but significantly”.

B2: GroEL(191-376): monomeric minichaperone, apical domain of GroEL residues 191 to 376, sht removed by thrombin cleavage (protein, UniProt P0A6F5 191-376, looked up, fragment)
chain: EGMQFDRGYLSPYFINKPETGAVELESPFILLADKKISNIREMLPVLEAVAKAGKPLLIIAEDVEGEALATLVVNTMRGIVKVAAVKAPGFGDRRKAMLQDIATLTGGTVISEEIGMELEKATLEDLGQAKRVVINKDTTTIIDGVGEEAAIQGRVAQIRQQIEEATSDYDREKLQERVAKLAGGV
modifications: apical domain
notes: monomeric minichaperone, apical domain of GroEL residues 191 to 376, sht removed by thrombin cleavage
In the case of B2, the “Binding to GroES” value in assay [2] is “did not detectably bind”. In assay [3], the “rate of refolding of denatured mtMDH” value is recorded as “ineffective in enhancing the refolding rate”. In addition, the “Effect of over-expression on plaque formation by bacteriophage λ in SV1 (groE^+) (in words)” value in assay [4] is “had no effect on plaque counts”.
